Results on 1 substance are retold here after patent US20250382602.

Series [1] concerns the target T1, Dda 1993 K358I K358I (Enterobacteria phage T4) (UniProt P32270).
T1 sequence: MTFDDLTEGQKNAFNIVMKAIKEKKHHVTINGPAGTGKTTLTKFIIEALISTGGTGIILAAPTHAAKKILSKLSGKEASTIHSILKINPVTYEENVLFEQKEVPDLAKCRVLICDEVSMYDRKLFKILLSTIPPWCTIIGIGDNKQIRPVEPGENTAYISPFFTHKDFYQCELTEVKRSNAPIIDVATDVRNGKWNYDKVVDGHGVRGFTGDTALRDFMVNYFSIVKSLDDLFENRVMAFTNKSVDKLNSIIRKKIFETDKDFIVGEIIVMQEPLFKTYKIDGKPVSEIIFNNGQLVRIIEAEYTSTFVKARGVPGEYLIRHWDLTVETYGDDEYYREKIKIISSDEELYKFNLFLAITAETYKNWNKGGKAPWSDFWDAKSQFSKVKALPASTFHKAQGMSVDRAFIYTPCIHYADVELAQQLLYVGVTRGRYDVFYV
Conditions: nanopore translocation, FLO-MIN106; background mutations not given.

In series [2] the target is T2, Dda 1993 K358M K358M (Enterobacteria phage T4) (UniProt P32270).
T2 sequence: T1 sequence with I358M
Conditions: nanopore translocation, FLO-MIN106; background mutations not given.

The target in series [3] is T3, Dda 1993 K358E K358E (Enterobacteria phage T4) (UniProt P32270).
T3 sequence: T1 sequence with I358E
As to conditions: nanopore translocation, FLO-MIN106; background mutations not given.

The target in series [4] is T4, Dda 1993 K358L K358L (Enterobacteria phage T4) (UniProt P32270).
T4 sequence: T1 sequence with I358L
As to conditions: nanopore translocation, FLO-MIN106; background mutations not given.

The target in series [5] is T5, Dda 1993 C114M C114M (Enterobacteria phage T4) (UniProt P32270).
T5 sequence: T1 sequence with C114M, I358K
As to conditions: nanopore translocation; background mutations not given.

Numbering of substitutions follows the chain as printed.

Regarding “barcoded 3.6 kb DNA analyte ligated to sequencing Y adaptor”, the activity (bps speed delta vs control) is -40.2 in series [1]; -48.6 in series [2]; -53.9 in series [3]; -42.7 in series [4]; 81.8 in series [5].
